The text below walks through data of the supplement of paper PMC10567573.

B1: DCAF4 (parent)
chain: PGIDRPGMLCSFRIPGAWSCAWSL
B2: NCF4 (parent)
chain: FVKILKDFPEEDDPTNWLRCYYYE
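Also: lentivirally expressed fusions sorted by FACS into six bins by GFP to DsRed ratio, PSI derived from sequencing read proportions per bin multiplied by bin number.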

In the first series the parent is B1. In words: protein stability index of a GFP-peptide fusion (GPS, HEK-293T) (PSI 1-6); higher = more stable. To be noted: c terminus: a fixed tail appended.
On to PGIDRPGMLCSFRIPGTWSCAWSL [A17T], for which the protein stability index was determined as 1.77.

As for PGIDRPGMLCSFRIPGGWSCAWSL [A17G], the protein stability index was 3.29.

Take PGIDRPGMLCSFRIPGCWSCAWSL [A17C]: the protein stability index was 2.26.

Consider PGIDRPGMLCSFRIPGMWSCAWSL [A17M], for which the protein stability index amounted to 3.08.

As for PGIDRPGMLCSFRIPGNWSCAWSL [A17N], the protein stability index is 2.48.

Consider PGIDRPGMLCSFRIPGRWSCAWSL [A17R], for which the protein stability index was 3.

On to PGIDRPGMLCSFRIPGPWSCAWSL [A17P], for which the protein stability index came to 1.61.

Regarding PGIDRPGMLCSFRIPGEWSCAWSL [A17E], the protein stability index is 3.28.

For PGIDRPGMLCSFRIPGIWSCAWSL [A17I], the protein stability index is 2.79.

Take PGIDRPGMLCSFRIPGSWSCAWSL [A17S]: the protein stability index was determined as 4.12.

For the variant PGIDRPGMLCSFRIPGYWSCAWSL [A17Y], the protein stability index was 2.95.

With PGIDRPGMLCSFRIPGDWSCAWSL [A17D], the protein stability index was found to be 3.01.

With PGIDRPGMLCSFRIPGLWSCAWSL [A17L], the protein stability index is 2.79.

For PGIDRPGMLCSFRIPGAWSCAWDL [S23D], the protein stability index is 2.39.

As for PGIDRPGMLCSFRIPGAWSCAWAL [S23A], the protein stability index worked out at 2.91.

As for PGIDRPGMLCSFRIPGAWSCAWYL [S23Y], the protein stability index stood at 3.52.

Turning to PGIDRPGMLCSFRIPGAWSCAWFL [S23F], the protein stability index worked out at 2.

PGIDRPGMLCSFRIPGAWSCAWLL [S23L]: the protein stability index turned out to be 3.01.

PGIDRPGMLCSFRIPGAWSCAWKL [S23K]: the protein stability index amounted to 2.47.

Consider PGIDRPGMLCSFRIPGAWSCAWQL [S23Q], for which the protein stability index amounted to 3.24.

For PGIDRPGMLCSFRIPGAWSCAWWL [S23W], the protein stability index is 2.88.

On to PGIDRPGMLCSFRIPGAWSCAWVL [S23V], for which the protein stability index was 2.27.

In the case of PGIDRPGMLCSFRIPGAWSCAWEL [S23E], the protein stability index was 3.03.

As for PGIDRPGMLCSFRIPGAWSCAWCL [S23C], the protein stability index was 1.89.

With PGIDRPGMLCSFRIPGAWSCAWPL [S23P], the protein stability index turned out to be 2.55.

For PGIDRPGMLCSFRIPGAWSCAWNL [S23N], the protein stability index is 2.36.

With PGIDRPGMLCSFRIPGAWSCAWTL [S23T], the protein stability index came to 2.5.

Consider PGIDRPGMLCSFRIPGAWSCAWGL [S23G], for which the protein stability index stood at 3.64.

Regarding PGIDRPGMLCSFRIPGAWSCAWIL [S23I], the protein stability index amounted to 1.75.

For PGIDRPGMLCSFRIPWAWSCAWSL [G16W], the protein stability index came to 1.49.

Turning to PGIDRPGMLCSFRIPLAWSCAWSL [G16L], the protein stability index was determined as 3.68.

For PGIDRPGMLCSFRIPVAWSCAWSL [G16V], the protein stability index was 2.81.

For the variant PGIDRPGMLCSFRIPSAWSCAWSL [G16S], the protein stability index is 3.06.

Consider PGIDRPGMLCSFRIPDAWSCAWSL [G16D], for which the protein stability index amounted to 2.18.

For PGIDRPGMLCSFRIPYAWSCAWSL [G16Y], the protein stability index was 2.84.

For the variant PGIDRPGMLCSFRIPHAWSCAWSL [G16H], the protein stability index worked out at 4.24.

On to PGIDRPGMLCSFRIPTAWSCAWSL [G16T], for which the protein stability index came to 3.2.

PGIDRPGMLCSFRIPKAWSCAWSL [G16K]: the protein stability index worked out at 3.56.

For the variant PGIDRPGMLCSFRIPIAWSCAWSL [G16I], the protein stability index stood at 3.24.

As to PGIDRPGMLCSFRIPFAWSCAWSL [G16F], the protein stability index is 2.83.

With PGIDRPGMLCSFRIPRAWSCAWSL [G16R], the protein stability index came to 2.68.

As for PGIDRPGMLCSFRIPNAWSCAWSL [G16N], the protein stability index amounted to 2.91.

As for PGIDRPGMLCSFRIPCAWSCAWSL [G16C], the protein stability index amounted to 2.39.

In the case of PGIDRPGMLCSFRIPQAWSCAWSL [G16Q], the protein stability index was found to be 2.3.

As to PGIDRPGMLCSFRIPPAWSCAWSL [G16P], the protein stability index was 3.49.

Consider PGIDRPGMLCSFRIPEAWSCAWSL [G16E], for which the protein stability index was determined as 3.31.

Turning to PGIDRPGMLCSFRIPGAWSCAWSK [L24K], the protein stability index was determined as 2.42.

Consider PGIDRPGMLCSFRIPGAWSCAWSF [L24F], for which the protein stability index is 3.21.

On to PGIDRPGMLCSFRIPGAWSCAWSR [L24R], for which the protein stability index stood at 1.47.

PGIDRPGMLCSFRIPGAWSCAWSP [L24P]: the protein stability index worked out at 2.03.

For PGIDRPGMLCSFRIPGAWSCAWSQ [L24Q], the protein stability index is 1.31.

For the variant PGIDRPGMLCSFRIPGAWSCAWSY [L24Y], the protein stability index stood at 1.96.

For the variant PGIDRPGMLCSFRIPGAWSCAWST [L24T], the protein stability index amounted to 3.74.

With PGIDRPGMLCSFRIPGAWSCAWSD [L24D], the protein stability index was found to be 2.85.

As to PGIDRPGMLCSFRIPGAWSCAWSA [L24A], the protein stability index came out at 3.62.

As for PGIDRPGMLCSFRIPGAWSCAWSV [L24V], the protein stability index came out at 2.71.

PGIDRPGMLCSFRIPGAWSCAWSH [L24H]: the protein stability index turned out to be 2.96.

Turning to PGIDRPGMLCSFRIPGAWSCAWSE [L24E], the protein stability index came to 1.38.

For PGIDRPGMLCSFRIPGAWSCAWSN [L24N], the protein stability index was determined as 2.87.

PGIDRPGMLCSFRIPGAWSCAWSI [L24I]: the protein stability index is 2.42.

With PGIDRPGMLCSFRIPGAWSCAWSS [L24S], the protein stability index was 2.15.

Take PGIDRPGMLCSFRIPGAWSCAWSW [L24W]: the protein stability index was 3.59.

Turning to PGIDRPGMLCSFRIPGAWSFAWSL [C20F], the protein stability index is 4.57.

As for PGIDRPGMLCSFRIPGAWSRAWSL [C20R], the protein stability index is 1.52.

In the case of PGIDRPGMLCSFRIPGAWSHAWSL [C20H], the protein stability index came to 2.41.

On to PGIDRPGMLCSFRIPGAWSGAWSL [C20G], for which the protein stability index was determined as 2.95.

As for PGIDRPGMLCSFRIPGAWSVAWSL [C20V], the protein stability index is 2.58.

Take PGIDRPGMLCSFRIPGAWSQAWSL [C20Q]: the protein stability index is 1.56.

PGIDRPGMLCSFRIPGAWSEAWSL [C20E]: the protein stability index turned out to be 1.7.

For PGIDRPGMLCSFRIPGAWSMAWSL [C20M], the protein stability index came out at 3.55.

With PGIDRPGMLCSFRIPGAWSPAWSL [C20P], the protein stability index was 3.17.

As for PGIDRPGMLCSFRIPGAWSKAWSL [C20K], the protein stability index amounted to 1.81.

As to PGIDRPGMLCSFRIPGAWSTAWSL [C20T], the protein stability index was 2.61.

Turning to PGIDRPGMLCSFRIPGAWSIAWSL [C20I], the protein stability index was found to be 2.77.

Take PGIDRPGMLCSFRIPGAWSLAWSL [C20L]: the protein stability index stood at 3.41.

With PGIDRPGMLCSFRIPGAWSNAWSL [C20N], the protein stability index was found to be 2.15.

On to PGIDRPGMLCSFRIPGAWSSAWSL [C20S], for which the protein stability index came out at 3.33.

Consider PGIDRPGMLCSFRIPGAWSDAWSL [C20D], for which the protein stability index was determined as 2.11.

In the case of PGIDRPGMLCSFRIPGAWSWAWSL [C20W], the protein stability index came out at 3.93.

A further series covers variants of B2. The description is as above. To be noted: c terminus: a fixed tail appended.
For MVKILKDFPEEDDPTNWLRCYYYE [F1M], the protein stability index worked out at 2.11.

With QVKILKDFPEEDDPTNWLRCYYYE [F1Q], the protein stability index stood at 2.56.

On to KVKILKDFPEEDDPTNWLRCYYYE [F1K], for which the protein stability index turned out to be 2.68.

Regarding HVKILKDFPEEDDPTNWLRCYYYE [F1H], the protein stability index came out at 2.7.

Consider WVKILKDFPEEDDPTNWLRCYYYE [F1W], for which the protein stability index is 3.29.

On to SVKILKDFPEEDDPTNWLRCYYYE [F1S], for which the protein stability index turned out to be 2.55.

In the case of TVKILKDFPEEDDPTNWLRCYYYE [F1T], the protein stability index stood at 2.6.

For NVKILKDFPEEDDPTNWLRCYYYE [F1N], the protein stability index came out at 2.96.

For PVKILKDFPEEDDPTNWLRCYYYE [F1P], the protein stability index is 2.05.

On to LVKILKDFPEEDDPTNWLRCYYYE [F1L], for which the protein stability index was found to be 2.17.

As to RVKILKDFPEEDDPTNWLRCYYYE [F1R], the protein stability index is 2.25.

With VVKILKDFPEEDDPTNWLRCYYYE [F1V], the protein stability index is 2.21.

IVKILKDFPEEDDPTNWLRCYYYE [F1I]: the protein stability index came to 2.09.

Take AVKILKDFPEEDDPTNWLRCYYYE [F1A]: the protein stability index was determined as 1.99.

On to CVKILKDFPEEDDPTNWLRCYYYE [F1C], for which the protein stability index worked out at 1.46.
